By Kd is commonly meant the free concentration of one partner at which half of the binding sites on the other are occupied at equilibrium, for simple one-to-one binding. The low end stands for higher affinity, the high end for lower affinity.

This passage reports binding result and Kd results from PMC3125984 (Journal of molecular biology, 2011).

Data set [1] concerns the molecule itself. In words: fluorescence correlation spectroscopy.
Data set [2] deals with T1, Mss116 core (Ser73-Tyr597) (Saccharomyces cerevisiae, UniProt P15424 73-597).
T1 sequence: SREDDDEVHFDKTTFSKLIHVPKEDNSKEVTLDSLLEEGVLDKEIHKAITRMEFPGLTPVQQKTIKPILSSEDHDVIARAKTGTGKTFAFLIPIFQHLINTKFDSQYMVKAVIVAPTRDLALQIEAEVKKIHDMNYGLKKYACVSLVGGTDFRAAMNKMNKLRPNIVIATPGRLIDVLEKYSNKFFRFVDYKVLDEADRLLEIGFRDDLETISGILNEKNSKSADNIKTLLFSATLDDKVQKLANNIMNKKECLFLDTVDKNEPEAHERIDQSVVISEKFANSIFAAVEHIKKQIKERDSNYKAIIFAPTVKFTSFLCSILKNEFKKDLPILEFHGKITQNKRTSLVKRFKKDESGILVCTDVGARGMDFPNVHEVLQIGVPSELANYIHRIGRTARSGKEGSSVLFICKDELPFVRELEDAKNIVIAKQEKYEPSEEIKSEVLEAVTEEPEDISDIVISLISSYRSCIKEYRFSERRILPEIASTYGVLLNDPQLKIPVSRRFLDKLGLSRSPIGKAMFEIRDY
In words: FCS.

For data set [3], the target named is T1, Mss116 core (Ser73-Tyr597). Description: FCS. The source holds these as a separate data set.

Where two headings read alike, the source gives them in different places.

B1: Mss116 (truncated construct, Ser73 - Tyr597) (domain or fragment, Saccharomyces cerevisiae, UniProt P15424 73-597, looked up)
chain: SREDDDEVHFDKTTFSKLIHVPKEDNSKEVTLDSLLEEGVLDKEIHKAITRMEFPGLTPVQQKTIKPILSSEDHDVIARAKTGTGKTFAFLIPIFQHLINTKFDSQYMVKAVIVAPTRDLALQIEAEVKKIHDMNYGLKKYACVSLVGGTDFRAAMNKMNKLRPNIVIATPGRLIDVLEKYSNKFFRFVDYKVLDEADRLLEIGFRDDLETISGILNEKNSKSADNIKTLLFSATLDDKVQKLANNIMNKKECLFLDTVDKNEPEAHERIDQSVVISEKFANSIFAAVEHIKKQIKERDSNYKAIIFAPTVKFTSFLCSILKNEFKKDLPILEFHGKITQNKRTSLVKRFKKDESGILVCTDVGARGMDFPNVHEVLQIGVPSELANYIHRIGRTARSGKEGSSVLFICKDELPFVRELEDAKNIVIAKQEKYEPSEEIKSEVLEAVTEEPEDISDIVISLISSYRSCIKEYRFSERRILPEIASTYGVLLNDPQLKIPVSRRFLDKLGLSRSPIGKAMFEIRDY
As for B1, the binding result in data set [1] is “binds”.
In the case of GCCUCGCUGCCCUUCGGGGCAGCGAGGC (structured_RNA) [28-mer hairpin RNA], the Kd was 122 ± 22 nM in data set [2] and 117 ± 21 nM in data set [3].
